The experiment concerns the target acetylcholine receptor (Homo sapiens, UniProt P02708). Briefly: SPR binding affinity (RU) of optimized 5mer/6mer/7mer peptides, Examples 6-7. The note with it: SPR, Resonance Units; peptides tested at 10 μM; 6mer-2 Bottom sequence. Summed up:
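Single-concentration screen: 10 μM peptide, SPR detection, binding expressed as RU.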
(In SPR one partner is held on a chip, and binding of the other changes the refractive index at the surface.)

Drawing on patent publication US20250011363A1, “OPTIMIZED SHORTENED PEPTIDE THAT BINDS TO ACETYLCHOLINE RECEPTOR, AND USE THEREOF” (SKINMED CO., LTD., priority 2021, published 2025), this text covers Binding affinity for 134 substances.

Chain of acetylcholine receptor (P02708 21-457): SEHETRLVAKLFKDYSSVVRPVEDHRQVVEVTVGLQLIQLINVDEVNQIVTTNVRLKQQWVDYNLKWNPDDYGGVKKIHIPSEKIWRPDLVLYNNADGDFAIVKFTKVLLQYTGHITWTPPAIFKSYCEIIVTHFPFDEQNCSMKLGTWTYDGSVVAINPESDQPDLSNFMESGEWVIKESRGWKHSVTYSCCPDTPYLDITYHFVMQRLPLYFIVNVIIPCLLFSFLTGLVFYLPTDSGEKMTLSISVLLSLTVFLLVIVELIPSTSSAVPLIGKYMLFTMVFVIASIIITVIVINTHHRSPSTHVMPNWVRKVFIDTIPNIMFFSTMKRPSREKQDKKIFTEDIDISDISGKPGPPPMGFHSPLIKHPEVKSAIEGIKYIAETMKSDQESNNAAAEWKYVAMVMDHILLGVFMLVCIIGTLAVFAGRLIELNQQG

In the case of 6mer-2-732 (KPTWRK), the Binding affinity came to 24 Ru.
6mer-2-733 (RTPARK): the Binding affinity is given as 29 Ru.
Then 6mer-2-734 (KHCHRR), with 17 Ru; and 6mer-2-735 (KMNAKK), with 21 Ru; and 6mer-2-736 (KNNHKK), with 29 Ru.
Turning to 6mer-2-737 (KDSVRR), the Binding affinity was determined as 19 Ru.
Take 6mer-2-738 (KPWFKK): the Binding affinity was found to be 29 Ru.
The value for 6mer-2-739 (RIHAKK) was 17 Ru; that for 6mer-2-740 (KIDIRR) was 12 Ru.
The value for 6mer-2-741 (KNEKKR) was 30 Ru; that for 6mer-2-742 (KNNWRR) was 32 Ru.
The value for 6mer-2-743 (KHTMKR) was 18 Ru.
Turning to 6mer-2-744 (KDHPRK), the Binding affinity stood at 19 Ru.
The value for 6mer-2-745 (KNTERR) was 17 Ru.
As to 6mer-2-746 (RIKVRK), the Binding affinity is reported as 26 Ru.
The value for 6mer-2-747 (RANFRR) was 29 Ru.
Then 6mer-2-748 (RFDKKR), with 28 Ru; and 6mer-2-749 (KMWKRK), with 20 Ru; and 6mer-2-750 (RKCVKR), with 29 Ru.
The value for 6mer-2-751 (RPHWKR) was 12 Ru; that for 6mer-2-752 (KINWRR) was 29 Ru.
As for 6mer-2-753 (RYEHRR), the Binding affinity was 18 Ru.
As for 6mer-2-754 (KADGRR), the Binding affinity turned out to be 12 Ru.
Then 6mer-2-755 (RYNDKK), with 18 Ru.
Consider 6mer-2-756 (KPTNRK), for which the Binding affinity was found to be 26 Ru.
Then 6mer-2-757 (RIPNKR), with 19 Ru.
Then 6mer-2-758 (RFSFKK), with 18 Ru; and 6mer-2-759 (RFDEKK), with 18 Ru; and 6mer-2-760 (KIPVKK), with 15 Ru.
Then 6mer-2-761 (RTEPRK), with 29 Ru; and 6mer-2-762 (KFEERK), with 24 Ru.
Take 6mer-2-763 (KMKERR): the Binding affinity stood at 19 Ru.
The value for 6mer-2-764 (RNAVKK) was 31 Ru.
Then 6mer-2-765 (KHSPRK), with 23 Ru; and 6mer-2-766 (RPTFRK), with 23 Ru.
Then 6mer-2-767 (RICGRK), with 13 Ru; and 6mer-2-768 (KYMGRK), with 22 Ru.
As for 6mer-2-769 (RCPFRK), the Binding affinity is recorded as 13 Ru.
Then 6mer-2-770 (KPNMKK), with 24 Ru.
Then 6mer-2-771 (KITARR), with 26 Ru; and 6mer-2-772 (RHPAKK), with 15 Ru; and 6mer-2-773 (KPDARR), with 11 Ru.
Then 6mer-2-774 (KFDARK), with 17 Ru; and 6mer-2-775 (KMSMKK), with 26 Ru.
As for 6mer-2-776 (RFPWRK), the Binding affinity is listed as 12 Ru.
Regarding 6mer-2-777 (KNDVRR), the Binding affinity was 31 Ru.
The value for 6mer-2-778 (RNAPKK) was 21 Ru; that for 6mer-2-779 (KAAHRR) was 13 Ru; that for 6mer-2-780 (KITIRK) was 31 Ru.
The value for 6mer-2-781 (KTMNRK) was 28 Ru.
Then 6mer-2-782 (KPWPKR), with 18 Ru; and 6mer-2-783 (RDMVRK), with 32 Ru; and 6mer-2-784 (KAEWRK), with 26 Ru.
Consider 6mer-2-785 (RHCHRR), for which the Binding affinity was determined as 31 Ru.
With 6mer-2-786 (RMEMRK), the Binding affinity is recorded as 30 Ru.
As to 6mer-2-787 (RIWHKK), the Binding affinity was 19 Ru.
The value for 6mer-2-788 (KKEKKK) was 30 Ru; that for 6mer-2-789 (KNENRK) was 24 Ru.
As for 6mer-2-790 (RCAGRR), the Binding affinity is recorded as 23 Ru.
The value for 6mer-2-791 (KNMNRK) was 27 Ru; that for 6mer-2-792 (RAEDKR) was 13 Ru; that for 6mer-2-793 (RMHKKR) was 29 Ru.
Then 6mer-2-794 (KAEMRR), with 19 Ru; and 6mer-2-795 (RTHNKR), with 16 Ru; and 6mer-2-796 (RMMARR), with 32 Ru.
Then 6mer-2-797 (RHCIKR), with 19 Ru.
Take 6mer-2-798 (RDTPKK): the Binding affinity was 17 Ru.
The value for 6mer-2-799 (KCSAKK) was 13 Ru.
Then 6mer-2-800 (RTAWKK), with 11 Ru; and 6mer-2-801 (RPNIRK), with 24 Ru.
Then 6mer-2-802 (KETKRR), with 24 Ru; and 6mer-2-803 (RNKERK), with 18 Ru.
Consider 6mer-2-804 (RNCGKR), for which the Binding affinity is 21 Ru.
As for 6mer-2-805 (RDTMKK), the Binding affinity is given as 12 Ru.
The value for 6mer-2-806 (KHCVRK) was 30 Ru.
Then 6mer-2-807 (KIWNRK), with 28 Ru; and 6mer-2-808 (RKKFKK), with 21 Ru; and 6mer-2-809 (REPWRR), with 18 Ru.
Take 6mer-2-810 (KHAKKK): the Binding affinity stood at 18 Ru.
The value for 6mer-2-811 (KAMKRK) was 16 Ru.
The value for 6mer-2-812 (KPPEKR) was 33 Ru; that for 6mer-2-813 (KKMDRR) was 29 Ru.
Then 6mer-2-814 (RYMERK), with 28 Ru.
As to 6mer-2-815 (KICGRK), the Binding affinity is reported as 30 Ru.
The value for 6mer-2-816 (RKMGKR) was 15 Ru; that for 6mer-2-817 (KCNDKK) was 22 Ru.
With 6mer-2-818 (KTPERK), the Binding affinity came to 13 Ru.
Then 6mer-2-819 (KFSVRR), with 23 Ru; and 6mer-2-820 (RPNNKK), with 24 Ru.
The value for 6mer-2-821 (RPTMKR) was 33 Ru; that for 6mer-2-822 (RCTAKK) was 13 Ru.
The value for 6mer-2-823 (REDWRK) was 25 Ru; that for 6mer-2-824 (RITNKR) was 26 Ru.
Take 6mer-2-825 (KIHARK): the Binding affinity was 11 Ru.
Then 6mer-2-826 (RNTPRK), with 11 Ru; and 6mer-2-827 (KYAEKK), with 13 Ru.
With 6mer-2-828 (RMKKKR), the Binding affinity worked out at 32 Ru.
The value for 6mer-2-829 (KKKIRR) was 22 Ru.
Take 6mer-2-830 (RMKFKR): the Binding affinity stood at 21 Ru.
Then 6mer-2-831 (RMTWRK), with 29 Ru.
As for 6mer-2-832 (KYHNRR), the Binding affinity amounted to 32 Ru.
Then 6mer-2-833 (RKTWRR), with 14 Ru; and 6mer-2-834 (RFWWKR), with 28 Ru; and 6mer-2-835 (RHCGKR), with 20 Ru.
Then 6mer-2-836 (KNTMKR), with 26 Ru; and 6mer-2-837 (REDFRR), with 32 Ru.
For the substance 6mer-2-838 (RCTVRK), the Binding affinity is recorded as 13 Ru.
Then 6mer-2-839 (KNHNRR), with 32 Ru; and 6mer-2-840 (KDWDRK), with 15 Ru; and 6mer-2-841 (KPNHRK), with 33 Ru.
Then 6mer-2-842 (KPKMRR), with 22 Ru; and 6mer-2-843 (KAPDRK), with 33 Ru; and 6mer-2-844 (RDPKKK), with 22 Ru.
Then 6mer-2-845 (KMKEKR), with 14 Ru; and 6mer-2-846 (RFSFKR), with 30 Ru.
For the substance 6mer-2-847 (RYCHKR), the Binding affinity is recorded as 22 Ru.
As for 6mer-2-848 (RMTERK), the Binding affinity was 29 Ru.
The value for 6mer-2-849 (RNTAKK) was 13 Ru; that for 6mer-2-850 (KTSMKR) was 16 Ru.
The value for 6mer-2-851 (KFWWRR) was 19 Ru.
Consider 6mer-2-852 (RNCERR), for which the Binding affinity amounted to 28 Ru.
Then 6mer-2-853 (KHTGRR), with 29 Ru; and 6mer-2-854 (RCNWKR), with 23 Ru.
The value for 6mer-2-855 (REMIKR) was 19 Ru; that for 6mer-2-856 (KEPMRR) was 14 Ru; that for 6mer-2-857 (KHTEKK) was 20 Ru.
The value for 6mer-2-858 (KEEHRR) was 30 Ru.
6mer-2-859 (RMDFRK): the Binding affinity turned out to be 21 Ru.
The value for 6mer-2-860 (KPNFRR) was 31 Ru; that for 6mer-2-861 (KDTDRK) was 21 Ru; that for 6mer-2-862 (RHTFKK) was 29 Ru.
The value for 6mer-2-863 (RKHWRR) was 17 Ru; that for 6mer-2-864 (RKCAKK) was 12 Ru.
The value for 6mer-2-865 (RHCNRK) was 16 Ru.
